The labels stand for the following.
B1: 376_H11 (antibody, V domains shown)
VH: EVQLLESGGGLVQPGGSLRLSCAASGFTFDSYSMNWVRQAPGKGLEWVSNINYNGGYTGYADSVKGRFTISRDNSKNTLYLQMNSLRAEDTAVYYCARGANWHDTALDYWGQGTLVTVSS
VL: DIQMTQSPSSLSASVGDRVTITCRASQSISRYLNWYQQKPGKAPKLLIYAVTSLASGVPSRFSGSGSGTDFTLTISSLQPEDFATYYCQQSYESPLTFGGGTKVEIK
B2: 368_D12 (antibody, V domains shown)
VH: B1 VH with D30S, S33G, N50S, G59S, N101T, A106H
VL: B1 VL with S30L, R31S, L33V, L47V, V51A, L54R, E93N, S94N
B3: 367_C08 (antibody, V domains shown)
VH: B1 VH with N35H, S49A, N50G, G59S, N101T, A106H
VL: B1 VL with S30L, R31T, V51A, Y92D, E93S, S94N
B4: 368_H11 (antibody, V domains shown)
VH: B1 VH with S33G, N35H, S49A, N50S, G59S, N101T, A106H
VL: B1 VL with S30L, R31S, V51A, L54R, Y92D, E93D, S94T
B5: 368_G03 (antibody, V domains shown)
VH: B1 VH with D30S, N50G, G55S, G59S, N101T
VL: B1 VL with S30L, R31S, L47V, V51A, L54R, E93D, S94T
B6: 365_A08 (antibody, V domains shown)
VH: B1 VH with D30S, S49A, N50S, T58K, G59S, N101T, A106H
VL: B1 VL with S30I, R31T, L47V, V51A, L54R, Y92D, E93N, S94T
B7: 365_F05 (antibody, V domains shown)
VH: B1 VH with D30S, S33G, S49A, N50S, G59S, N101T, A106H
VL: B1 VL with S30V, R31T, L33V, V51A, L54R, S94T
B8: 367_B06 (antibody, V domains shown)
VH: B1 VH with D30S, S49A, N101T, A106H
VL: B1 VL with S30I, R31S, L33V, L47V, V51A, A55H, E93N
B9: 367_D05 (antibody, V domains shown)
VH: B1 VH with D30S, S31D, N50S, T58K, G59S, N101T, A106H
VL: B1 VL with S30I, R31S, L33V, L47V, V51A, E93D
B10: 369_G05 (antibody, V domains shown)
VH: B1 VH with D30S, S49A, N50G, G59S, N101T, A106H
VL: B1 VL with S30V, R31S, V51A, L54R, A55H, E93D
B11: 367_F09 (antibody, V domains shown)
VH: B1 VH with N35H, S49A, N50G, G59S, N101T, A106H
VL: B1 VL with S30L, R31T, V51A, Y92D, E93S, S94N
B12: 368_H06 (antibody, V domains shown)
VH: B1 VH with S33G, N35H, S49A, T58K, G59S, N101T, A106H
VL: B1 VL with S30L, R31T, L33V, V51T, L54R, E93D, S94N
B13: 365_C02 (antibody, V domains shown)
VH: B1 VH with T58K, N101T, A106H
VL: B1 VL with R31T, L47V, V51A, L54R, A55H, S94N
B14: 367_D09 (antibody, V domains shown)
VH: B1 VH with S33G, S49A, N50S, T58K, G59S, N101T, A106H
VL: B1 VL with S30L, R31T, V51A, E93D, S94N
B15: 366_G09 (antibody, V domains shown)
VH: B1 VH with S31D, S49A, N50S, G55S, N101T, A106H
VL: B1 VL with S30L, R31S, L33V, L47V, V51A, L54R, E93D, S94L
B16: 365_D02 (antibody, V domains shown)
VH: B1 VH with D30S, N35H, S49A, N50S, G59S, N101T, A106H
VL: B1 VL with S30V, R31T, V51A, E93D, S94N
B17: 367_A02 (antibody, V domains shown)
VH: B1 VH with S33G, N50S, G55S, T58K, N101T, A106H
VL: B1 VL with S30I, R31S, L54R, E93D, S94T
B18: 365_C04 (antibody, V domains shown)
VH: B1 VH with S49A, T58K, N101T, A106H
VL: B1 VL with S30L, R31T, L47V, V51A, E93D, S94T
B19: 366_D08 (antibody, V domains shown)
VH: B1 VH with D30S, S33G, N35H, T58K, G59S, N101T, A106H
VL: B1 VL with S30L, R31S, L33V, L47V, V51A, S94N
B20: 369_F05 (antibody, V domains shown)
VH: B1 VH with D30S, N50G, T58K, G59S, N101T, A106H
VL: B1 VL with R31S, V51A, T52S, A55Q, S91G, E93D
B21: 369_E05 (antibody, V domains shown)
VH: B1 VH with D30S, S31D, S33G, S49A, T58K, G59S, N101T, A106H
VL: B1 VL with S30L, R31T, V51A, S94T
B22: 368_F06 (antibody, V domains shown)
VH: B1 VH with S31D, N35H, S49A, G55S, N101T, A106H
VL: B1 VL with S30L, R31S, L47V, V51T, L54R, S94N
B23: 369_A11 (antibody, V domains shown)
VH: B1 VH with S33G, S49A, T58K, N101T, A106H
VL: B1 VL with S30I, R31T, L47V, V51A, L54R, A55H
B24: 367_E07 (antibody, V domains shown)
VH: B1 VH with D30S, S31D, N50S, T58K, N101T, A106H
VL: B1 VL with S30L, R31S, L33V, L47V, V51A, L54R, S94N
B25: 368_D02 (antibody, V domains shown)
VH: B1 VH with S31D, S33G, N101T, A106H
VL: B1 VL with R31T, L47V, V51A, L54R, A55H, E93D, S94T
B26: 369_C12 (antibody, V domains shown)
VH: B1 VH with D30S, S33G, S49A, T58K, N101T, A106H
VL: B1 VL with S30L, R31T, V51A, L54R, A55H, E93D, S94T
B27: 369_D08 (antibody, V domains shown)
VH: B1 VH with D30S, S31D, S49A, N50S, T58K, N101T, A106H
VL: B1 VL with S30L, R31T, V51A, L54R, E93D, S94T
B28: 369_F09 (antibody, V domains shown)
VH: B1 VH with D30S, S33G, N35H, S49A, N50G, G59S, N101T, A106H
VL: B1 VL with S30L, R31T, L33V, V51A, L54R, E93D
B29: 368_C11 (antibody, V domains shown)
VH: B1 VH with D30S, S31D, N50S, G55S, T58K, G59S, N101T, A106H
VL: B1 VL with S30I, R31S, V51A, L54R, E93D, S94N
B30: 368_G10 (antibody, V domains shown)
VH: B1 VH with D30S, N35H, N50S, G59S, N101T, A106H
VL: B1 VL with S30V, R31S, L33V, L47V, V51A, L54R, E93D, S94T
B31: 365_D10 (antibody, V domains shown)
VH: B1 VH with D30S, S49A, N50G, N101T, A106H
VL: B1 VL with R31T, V51A, L54R
B32: 369_E08 (antibody, V domains shown)
VH: B1 VH with D30S, S49A, N50S, G55S, N101T, A106H
VL: B1 VL with S30L, R31T, L33V, V51A, L54R, E93D

Numbering of substitutions follows the chain as printed.

This experiment concerns the target Human Fc (human). As to the kind of experiment: ELISA; negative control.
B1: the optical density was found to be 0.325 OD.

B2 returned an optical density of 0.329 OD.

On to B3, for which the optical density turned out to be 0.278 OD.

Turning to B4, the optical density is 0.355 OD.

Regarding B5, the optical density was 0.312 OD.

As for B6, the optical density worked out at 0.256 OD.

Regarding B7, the optical density turned out to be 0.376 OD.

B8 displayed an optical density of 0.378 OD.

B9 returned an optical density of 0.265 OD.

In turn, B10 gave an optical density of 0.384 OD.

B11 had an optical density of 0.289 OD.

As to B12, the optical density is 0.311 OD.

For B13, the optical density stood at 0.362 OD.

Molecule B14 had an optical density of 0.381 OD.

The molecule B15 showed an optical density of 0.291 OD.

B16 registered an optical density of 0.486 OD.

Molecule B17 yielded an optical density of 0.305 OD.

Take B18: the optical density turned out to be 0.305 OD.

The molecule B19 showed an optical density of 0.312 OD.

B20 showed an optical density of 0.331 OD.

Molecule B21 returned an optical density of 0.282 OD.

B22 yielded an optical density of 0.249 OD.

Consider B23, for which the optical density came out at 0.366 OD.

In turn, B24 had an optical density of 0.221 OD.

As for B25, the optical density stood at 0.321 OD.

B26: the optical density was 0.418 OD.

As to B27, the optical density was 0.241 OD.

Turning to B28, the optical density came out at 0.5 OD.

The molecule B29 gave an optical density of 0.275 OD.

Molecule B30 registered an optical density of 0.356 OD.

B31: the optical density came out at 0.641 OD.

B32 came in with an optical density of 0.272 OD.

For the origin of these results see US20210380703A1.
